Measurements from patent US20240150495A1.

T1: synthetic peptide Rp10-L, a mimotope of B-cell molecular marker CD20
T1 sequence (peptide): ITPWPHWLERSS


Assays:
[1] = target: T1, synthetic peptide Rp10-L, a mimotope of B-cell molecular marker CD20; test: ELISA, periplasmic extract, Rp10-L 1.63 µg/ml; well without peptide 0.265
[2] = target: T1, synthetic peptide Rp10-L, a mimotope of B-cell molecular marker CD20; test: ELISA, periplasmic extract, Rp10-L 12.5 µg/ml; well without peptide 0.265
[3] = target: T1, synthetic peptide Rp10-L, a mimotope of B-cell molecular marker CD20; test: ELISA, periplasmic extract, Rp10-L 50.0 µg/ml; well without peptide 0.265
[4] = target: T1, synthetic peptide Rp10-L, a mimotope of B-cell molecular marker CD20; test: ELISA, periplasmic lysate on coated Rp10-L, single well; plate A background 0.027
[5] = target: T1, synthetic peptide Rp10-L, a mimotope of B-cell molecular marker CD20; test: ELISA, periplasmic extract, Rp10-L 0.81 µg/ml; well without peptide 0.265
[6] = target: T1, synthetic peptide Rp10-L, a mimotope of B-cell molecular marker CD20; test: ELISA, periplasmic extract, Rp10-L 6.25 µg/ml; well without peptide 0.265
[7] = target: T1, synthetic peptide Rp10-L, a mimotope of B-cell molecular marker CD20; test: ELISA, periplasmic extract, Rp10-L 3.13 µg/ml; well without peptide 0.265
[8] = target: T1, synthetic peptide Rp10-L, a mimotope of B-cell molecular marker CD20; test: ELISA, periplasmic extract, Rp10-L 25.0 µg/ml; well without peptide 0.265
[9] = target: T1, synthetic peptide Rp10-L, a mimotope of B-cell molecular marker CD20; test: ELISA, periplasmic extract, Rp10-L 25.0 µg/ml; well without peptide 0.469
[10] = target: T1, synthetic peptide Rp10-L, a mimotope of B-cell molecular marker CD20; test: ELISA, periplasmic extract, Rp10-L 0.81 µg/ml; well without peptide 0.469
[11] = target: T1, synthetic peptide Rp10-L, a mimotope of B-cell molecular marker CD20; test: ELISA, periplasmic extract, Rp10-L 3.13 µg/ml; well without peptide 0.469
[12] = target: T1, synthetic peptide Rp10-L, a mimotope of B-cell molecular marker CD20; test: ELISA, periplasmic extract, Rp10-L 12.5 µg/ml; well without peptide 0.469
[13] = target: T1, synthetic peptide Rp10-L, a mimotope of B-cell molecular marker CD20; test: ELISA, periplasmic extract, Rp10-L 6.25 µg/ml; well without peptide 0.469
[14] = target: T1, synthetic peptide Rp10-L, a mimotope of B-cell molecular marker CD20; test: ELISA, periplasmic lysate on coated Rp10-L, single well; plate D background 0.035
[15] = target: T1, synthetic peptide Rp10-L, a mimotope of B-cell molecular marker CD20; test: ELISA, periplasmic extract, Rp10-L 1.63 µg/ml; well without peptide 0.469
[16] = target: T1, synthetic peptide Rp10-L, a mimotope of B-cell molecular marker CD20; test: ELISA, periplasmic extract, Rp10-L 50.0 µg/ml; well without peptide 0.469

Row | ELISA absorbance [1] | ELISA absorbance [2] | ELISA absorbance [3] | A492/620 [4] [A492/620] | ELISA absorbance [5] | ELISA absorbance [6] | ELISA absorbance [7] | ELISA absorbance [8] | ELISA absorbance [9] | ELISA absorbance [10] | ELISA absorbance [11] | ELISA absorbance [12] | ELISA absorbance [13] | A492/620 [14] [A492/620] | ELISA absorbance [15] | ELISA absorbance [16] | Binder
1 | 0.383 | 0.315 | 0.398 | 0.395 | 0.362 | 0.343 | 0.352 | 0.335 | – | – | – | – | – | – | – | – | CH3 clone A21 (mutated human IgG1 CH3 domain, CH3+3 library) (designed binder, not shown: small tags and cut ends) MAPREPQVYTLPPSRDELVDGQVSLTCLVKGFYPSDIAVEWESNGQPENNYKTTPPVLDSDGSFFLYSKLTVPWGPRDRWWPGNVFSCSVMHEALHNHYTQKSLSLSPGKAAA
2 | – | – | – | – | – | – | – | – | 0.868 | 0.66 | 0.719 | 0.77 | 0.694 | 0.448 | 0.719 | 0.765 | CH3 clone D39 (mutated human IgG1 CH3 domain, CH3+3 library) (designed binder, not shown: small tags and cut ends) MAPREPQVYTLPPSRDELGWWQVSLTCLVKGFYPSDIAVEWESNGQPENNYKTTPPVLDSDGSFFLYSKLTVQQKPFARWTDGNVFSCSVMHEALHNHYTQKSLSLSPGKAAA
